Source: patent US20260146077A1 (US Dept. of Health and Human Services, published 2026)
Like-named read-outs stand apart in the source and are kept apart here.

Experiments:
Assay in all cases: cell-based or functional assay
[1] = biological target: T1, SARS-CoV-2 spike protein, BA.1 (SARS-CoV-2, UniProt P0DTC2 14-1273)
[2] = biological target: T2, SARS-CoV-2 spike protein, B.1.351 (SARS-CoV-2, UniProt P0DTC2 14-1273)
[3] = biological target: T3, SARS-CoV-2 spike protein, B.1.617.2 (SARS-CoV-2, UniProt P0DTC2 14-1273)
[4] = biological target: T1, SARS-CoV-2 spike protein, BA.1; remark: listed apart in the source
[5] = biological target: T2, SARS-CoV-2 spike protein, B.1.351; remark: listed apart in the source
[6] = biological target: T3, SARS-CoV-2 spike protein, B.1.617.2; remark: listed apart in the source
[7] = biological target: T1, SARS-CoV-2 spike protein, BA.1; remark: listed apart in the source
[8] = biological target: SARS-CoV-2 spike protein, BA.2.12.1 (SARS-CoV-2, UniProt P0DTC2 14-1273)
[9] = biological target: SARS-CoV-2 spike protein, BA.1.1 (SARS-CoV-2, UniProt P0DTC2 14-1273)
[10] = biological target: SARS-CoV-2 spike protein, BA.2 (SARS-CoV-2, UniProt P0DTC2 14-1273)

Binder | BA.1 neutralization, fold improvement over B1-182.1 [1] | neutralization IC50 [4] | neutralization IC80 [4] | BA.1 neutralization, fold improvement over A19-58.1 [1] | neutralization IC50 [5] | neutralization IC80 [5] | neutralization IC50 [6] | neutralization IC80 [6] | neutralization IC50 [7] | neutralization IC80 [7] | neutralization IC50 [8] | neutralization IC80 [8] | other results
B1-182.1HC/182.1LC_95LTG (antibody, V domains shown) VH: not shown VL: EIVLTQSPGTLSLSPGERATLSCRASQSVSSSYLAWYQQKPGQAPRLLIYGASSRATGFPDRFSGSGSGTDFTLTISRLEPEDFAVYYCQQYGNLTGWTFGQGTKVEIR | > 9 fold | 0.0206 µg/mL | 0.118 µg/mL | – | – | – | – | – | – | – | – | – | neutralization IC50 [2]: 0.0072 µg/mL; neutralization IC80 [2]: 0.014 µg/mL; neutralization IC50 [3]: 0.0068 µg/mL; neutralization IC80 [3]: 0.0151 µg/mL
B1-182.1HC/182.1LC_94GLTG (antibody, V domains shown) VH: not shown VL: EIVLTQSPGTLSLSPGERATLSCRASQSVSSSYLAWYQQKPGQAPRLLIYGASSRATGFPDRFSGSGSGTDFTLTISRLEPEDFAVYYCQQYGGLTGWTFGQGTKVEIR | > 13 fold | 0.0142 µg/mL | 0.0623 µg/mL | – | – | – | – | – | – | – | – | – | neutralization IC50 [2]: 0.0023 µg/mL; neutralization IC80 [2]: 0.0063 µg/mL; neutralization IC50 [3]: 0.0041 µg/mL; neutralization IC80 [3]: 0.0086 µg/mL
B1-182.1HC/182.1LC_93VGLTG (antibody, V domains shown) VH: not shown VL: EIVLTQSPGTLSLSPGERATLSCRASQSVSSSYLAWYQQKPGQAPRLLIYGASSRATGFPDRFSGSGSGTDFTLTISRLEPEDFAVYYCQQYVGLTGWTFGQGTKVEIR | > 17 fold | 0.0115 µg/mL | 0.0396 µg/mL | – | – | – | – | – | – | – | – | – | neutralization IC50 [2]: 0.0009 µg/mL; neutralization IC80 [2]: 0.0044 µg/mL; neutralization IC50 [3]: 0.0014 µg/mL; neutralization IC80 [3]: 0.0059 µg/mL
A23-58.1HC_Y100cA/58.1LC_93VGLTG (antibody, V domains shown) VH: not shown VL: EIVLTQSPGTLSLSPGERATLSCRASQSVSSSYLAWYQQKPGQAPRLLIYSASSRATGIPDRFSGSGSGTDFTLTISRLEPEDFAVYFCQQYVGLTGWTFGQGTKVEIK | – | – | – | > 6 fold | 0.0011 µg/mL | 0.0043 µg/mL | 0.003 µg/mL | 0.0098 µg/mL | 0.0155 µg/mL | 0.0419 µg/mL | 0.0242 µg/mL | 0.0621 µg/mL | –
A23-58.1HC/58.1LC_96TG (antibody, V domains shown) VH: not shown VL: EIVLTQSPGTLSLSPGERATLSCRASQSVSSSYLAWYQQKPGQAPRLLIYSASSRATGIPDRFSGSGSGTDFTLTISRLEPEDFAVYFCQQYGTSTGWTFGQGTKVEIK | – | – | – | > 3 fold | 0.0027 µg/mL | 0.0066 µg/mL | 0.0054 µg/mL | 0.0131 µg/mL | 0.0294 µg/mL | 0.0658 µg/mL | – | – | –
B1-182.1HC_F100cS/182.1LC_94GLTG (antibody, V domains shown) VH: not shown VL: EIVLTQSPGTLSLSPGERATLSCRASQSVSSSYLAWYQQKPGQAPRLLIYGASSRATGFPDRFSGSGSGTDFTLTISRLEPEDFAVYYCQQYGGLTGWTFGQGTKVEIR | > 46 fold | 0.0042 µg/mL | 0.0167 µg/mL | – | – | – | – | – | – | – | – | – | neutralization IC50 [2]: 0.0022 µg/mL; neutralization IC80 [2]: 0.0049 µg/mL; neutralization IC50 [3]: 0.0018 µg/mL; neutralization IC80 [3]: 0.0052 µg/mL
A23-58.1HC/58.1LC_F88Y-93VGLTG (antibody, V domains shown) VH: not shown VL: EIVLTQSPGTLSLSPGERATLSCRASQSVSSSYLAWYQQKPGQAPRLLIYSASSRATGIPDRFSGSGSGTDFTLTISRLEPEDFAVYYCQQYVGLTGWTFGQGTKVEIK | – | – | – | > 10 fold | 0.0023 µg/mL | 0.0088 µg/mL | 0.006 µg/mL | 0.0162 µg/mL | 0.0093 µg/mL | 0.0426 µg/mL | 0.0099 µg/mL | 0.0422 µg/mL | –
B1-182.1HC_F100cS/182.1LC_93VGLTG (antibody, V domains shown) VH: not shown VL: EIVLTQSPGTLSLSPGERATLSCRASQSVSSSYLAWYQQKPGQAPRLLIYGASSRATGFPDRFSGSGSGTDFTLTISRLEPEDFAVYYCQQYVGLTGWTFGQGTKVEIR | > 9 fold | – | 0.0909 µg/mL | – | – | – | – | – | – | – | – | – | pseudovirus neutralization IC50 [1]: 0.0228 µg/mL
A23-58.1HC_Y100cA/58.1LC_94GLTG (antibody, V domains shown) VH: not shown VL: EIVLTQSPGTLSLSPGERATLSCRASQSVSSSYLAWYQQKPGQAPRLLIYSASSRATGIPDRFSGSGSGTDFTLTISRLEPEDFAVYFCQQYGGLTGWTFGQGTKVEIK | – | – | – | > 25 fold | 0.0023 µg/mL | 0.0063 µg/mL | 0.0131 µg/mL | 0.0165 µg/mL | 0.0038 µg/mL | 0.016 µg/mL | 0.0193 µg/mL | 0.051 µg/mL | –
A23-58.1HC/58.1LC_96+G (antibody, V domains shown) VH: not shown VL: EIVLTQSPGTLSLSPGERATLSCRASQSVSSSYLAWYQQKPGQAPRLLIYSASSRATGIPDRFSGSGSGTDFTLTISRLEPEDFAVYFCQQYGTSPGWTFGQGTKVEIK | – | – | – | – | 0.0105 µg/mL | 0.0292 µg/mL | 0.0046 µg/mL | 0.0112 µg/mL | 0.133 µg/mL | 0.917 µg/mL | – | – | –
B1-182.1HC/182.1LC_96TG (antibody, V domains shown) VH: not shown VL: EIVLTQSPGTLSLSPGERATLSCRASQSVSSSYLAWYQQKPGQAPRLLIYGASSRATGFPDRFSGSGSGTDFTLTISRLEPEDFAVYYCQQYGNSTGWTFGQGTKVEIR | > 9 fold | 0.0206 µg/mL | 0.0857 µg/mL | – | – | – | – | – | – | – | – | – | neutralization IC50 [2]: 0.0044 µg/mL; neutralization IC80 [2]: 0.0143 µg/mL; neutralization IC50 [3]: 0.004 µg/mL; neutralization IC80 [3]: 0.0084 µg/mL
A23-58.1HC/S2E12LC (antibody, V domains shown) VH: not shown VL: DIVLTQTPGTLSLSPGERATLSCRASQSVSSSYLAWYQQKPGQAPRLLIYGASSRATGIPDRFSGSGSGTDFTLTISRLEPEDFAVYYCQQYVGLTGWTFGQGTKVEIK | – | – | – | 10 fold | 0.0035 µg/mL | 0.0079 µg/mL | 0.0022 µg/mL | 0.0076 µg/mL | 0.0098 µg/mL | 0.0311 µg/mL | 0.0566 µg/mL | 0.201 µg/mL | neutralization IC50 [9]: 0.0038 µg/mL; neutralization IC80 [9]: 0.0158 µg/mL; neutralization IC50 [10]: 0.0067 µg/mL; neutralization IC80 [10]: 0.0269 µg/mL
A23-58.1HC/58.1LC_F88Y-94GLTG (antibody, V domains shown) VH: not shown VL: EIVLTQSPGTLSLSPGERATLSCRASQSVSSSYLAWYQQKPGQAPRLLIYSASSRATGIPDRFSGSGSGTDFTLTISRLEPEDFAVYYCQQYGGLTGWTFGQGTKVEIK | – | – | – | > 3 fold | 0.0044 µg/mL | 0.0116 µg/mL | 0.0063 µg/mL | 0.0188 µg/mL | 0.0261 µg/mL | 0.0919 µg/mL | 0.0417 µg/mL | 0.0956 µg/mL | –
A23-58.1HC_Y100cA/S2E12LC (antibody, V domains shown) VH: not shown VL: DIVLTQTPGTLSLSPGERATLSCRASQSVSSSYLAWYQQKPGQAPRLLIYGASSRATGIPDRFSGSGSGTDFTLTISRLEPEDFAVYYCQQYVGLTGWTFGQGTKVEIK | – | – | – | 20 fold | 0.0026 µg/mL | 0.0059 µg/mL | 0.0029 µg/mL | 0.0078 µg/mL | 0.0049 µg/mL | 0.0261 µg/mL | 0.0351 µg/mL | 0.142 µg/mL | neutralization IC50 [9]: 0.0044 µg/mL; neutralization IC80 [9]: 0.0131 µg/mL; neutralization IC50 [10]: 0.0084 µg/mL; neutralization IC80 [10]: 0.0384 µg/mL
A23-58.1HC/58.1LC_95LTG (antibody, V domains shown) VH: not shown VL: EIVLTQSPGTLSLSPGERATLSCRASQSVSSSYLAWYQQKPGQAPRLLIYSASSRATGIPDRFSGSGSGTDFTLTISRLEPEDFAVYFCQQYGTLTGWTFGQGTKVEIK | – | – | – | 5 fold | 0.0035 µg/mL | 0.0091 µg/mL | 0.0028 µg/mL | 0.0116 µg/mL | 0.0214 µg/mL | 0.0454 µg/mL | – | – | –
A23-58.1HC/58.1LC_93VGLT (antibody, V domains shown) VH: not shown VL: EIVLTQSPGTLSLSPGERATLSCRASQSVSSSYLAWYQQKPGQAPRLLIYSASSRATGIPDRFSGSGSGTDFTLTISRLEPEDFAVYFCQQYVGLTWTFGQGTKVEIK | – | – | – | > 20 fold | 0.001 µg/mL | 0.0032 µg/mL | 0.0009 µg/mL | 0.0024 µg/mL | 0.0048 µg/mL | 0.0187 µg/mL | 0.0091 µg/mL | 0.0431 µg/mL | –
A23-58.1HC_Y100cA/58.1LC_93VGLT (antibody, V domains shown) VH: not shown VL: EIVLTQSPGTLSLSPGERATLSCRASQSVSSSYLAWYQQKPGQAPRLLIYSASSRATGIPDRFSGSGSGTDFTLTISRLEPEDFAVYFCQQYVGLTWTFGQGTKVEIK | – | – | – | – | – | – | – | – | 0.306 µg/mL | 2.54 µg/mL | 0.48 µg/mL | 2.05 µg/mL | –
B1-182.1HC/182.1LC_93VGLT (antibody, V domains shown) VH: not shown VL: EIVLTQSPGTLSLSPGERATLSCRASQSVSSSYLAWYQQKPGQAPRLLIYGASSRATGFPDRFSGSGSGTDFTLTISRLEPEDFAVYYCQQYVGLTWTFGQGTKVEIR | – | 0.297 µg/mL | 3.19 µg/mL | – | – | – | – | – | – | – | – | – | –
